# Reference: article PMC3999930, “Characterization of a SAM-dependent fluorinase from a latent biosynthetic pathway for fluoroacetate and 4-fluorothreonine formation in Nocardia brasiliensis” (F1000Research, 2014)
# B1: NobA, SAM-dependent fluorinase (5'-fluoro-5'-deoxyadenosine synthase) from Nocardia brasiliensis ATCC 700358 (enzyme, UniProt W8JNL4 1-300, looked up)
# chain: MTTTNGRRPIIAFMSDLGITDDSVAQCKGLMLSVCPDVTIVDICHTMQPWDVEEGARYIVDLPRLFPEGTVFATTTYPATGTTARSVALRIAHASKGGARGQWAGSGAGFERKEGSYIYIAPNNGLLTTVIKEHGYLEAYEVSSPEVIPEQPEPTFYSREMVALPSAHLAAGFPLEKVGRRLADDEIVRFERKDPELVADHDLVGYVTNIDHPFGNVWTNIHRTDLEKLGVGYGTKLRITLDGVLPFELPLSPTFADAGEIGAAVAYLSSRGYLALARNAASLAYPYNLKAGISVQVKVG
# notes: NobA, fluorinase of Nocardia brasiliensis ATCC 700358 (HUJEG-1); NdeI-HindIII fragment in pET28a; no removal of the His tag is described; also called 5'-FDA synthase; source: E. coli BL21 (DE3), purified (Ni-NTA, dialysis)
# Target: the molecule itself
# Experiment: SEC; Superdex 200 GL, 50 mM phosphate buffer pH 7.8, 1 ml/min; native mass estimated from a calibration curve of standard proteins (29-669 kDa)
protein,measurement,value
B1,stoichiometry N,6
